Here are results for two substances from article PMC9887876.

The target of assay [1] is GP075m, variant of the putative baseplate wedge protein GP075 with the substitution T239A (phage K8-T239A), His-tagged (Pseudomonas phage K8-T239A (derivative of phage K8)). The assay can be described thus: SEC-MALS; 100 ul of protein solution (0.15-4.05 mg/ml) on a WTC-015S5 column; 100 mM NaCl, 50 mM Tris-HCl, 1 mM EDTA, 0.02% NaN3, pH 7.4; 0.4 ml/min; BSA as control; self-polymerization degree.

Assay [2] has as its target putative baseplate wedge protein GP075 of Pseudomonas phage K8, His-tagged (Pseudomonas phage K8). The description is as above.

“GP075m, variant of the putative baseplate wedge protein GP075 with the substitution T239A (phage K8-T239A), His-tagged (natural protein)” had a molar mass in assay [1] of 185.

“putative baseplate wedge protein GP075 of Pseudomonas phage K8, His-tagged (natural protein)”: the molar mass in assay [2] came to 81.2.
